# Assay results as given in the nanobody polyreactivity screen of Harvey et al. (2022).
# Test: yeast display, Sf9 membrane polyspecificity reagent, FACS + sequencing; frameworks hold sequencing errors
# Summary of the method: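 Synthetic nanobody libraries on Saccharomyces cerevisiae BJ5465 were galactose-induced for 36–48 hours, stained 1 hour at 4 °C with 10% biotinylated, detergent-solubilized Sf9 membrane reagent and enriched on streptavidin microbeads. FACS then separated cells into low and high (top ~1%) gates by anti-HA (expression) and streptavidin (reagent binding) fluorescence. Genes were colony-PCR amplified, MiSeq 2 × 250 sequenced and CDR-length filtered. A clone's polyreactivity label is that of its gate of origin.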
row,Sequence,polyreactivity (PSR sort gate)
1,QVQLVESGGGLVQAGGSLRLSCAASGTNVMGWYRQAPGKERELVAAISGSGGSTYYADSVKGRFTISRDNAKNSVYFQMNSLKPEDSAVYYCAADSIQYTARPYDYWGQGTQVTVSS,low polyreactivity
2,QVQLVESGGGLVQAGGSLRLSCAASGTTFDSNGRGWYREAPGKERELVAAIRSGDSTYYADSVKGRCTISRDNAKNTVYLQMISLKPEDTAVYYCNKDEATFLSKDDYWGQGTQVTVSS,low polyreactivity
3,QVQLVESGGGLVQAGGSLRLSCAASGTTFDYYAMGWYRQAPGKERELVAVISSSGGSTYYADSVKGRFTISRDNAKNTVYLQMNSLKPEDTAVYYCAALYRNYGSSYAYYYWGQGTQVTVSS,low polyreactivity
4,QVQLVESGGGLVQAGGSLRLSCAASGTTFSRYAMGWYRQAPGKEREFVAAISRRAGGTYYADSVKGRFTISRDNAKNTVYLQMNSLKPEDTAVYYCAKVLPRDYIGRATYDYWGQGTQVTVSS,high polyreactivity
5,QVQLVESGGGLVQAGGSLRLSCAASGTTFSVNAMGWYRQAPGKERELVAAIDYSGGSTYYADSVKGRFTISRDNAKNTVYLQMNSLKPEDTAVYYCNADAYGTPEFTSYAVRYDYWGQGTQVTVSS,low polyreactivity
6,QVQLVESGGGLVQAGGSLRLSCAASGTTFSYNAIVWYRQAPGKERELVAAISGSGGTTYYADSVKGRFTISRDNAKNTVYLEMNSLKPEDTAVYYCDARPFRSWRYDYWGQGTQVTVSS,low polyreactivity
7,QVQLVESGGGLVQAGGSLRLSCAASGTTFTFNAMGWSRQAPGKERELVAAMSRSGGRTYYADSVKGRFTISRDNAKNTVYLQMNSLNPEDTAVYYCANDFVEQGRYNVGYWGQGTQVTGSS,high polyreactivity
8,QVQLVESGGGLVQAGGSLRLSCAASGTTFVHYAMGWYRQAPGKERELVAAISSSGDSTYYADSVKGRFTISRDKAKNTVYLQMNSLKPEDTAVYYCAVRSRTPRAYYYWGQGTQVTVSS,low polyreactivity
9,QVQLVESGGGLVQAGGSLRLSCAASGTTFVWYAMGWYRQAPGKERELVAAISLSGGSTYYADSVKGRFTISRDNAKKTVYLQMNSLKPEDTAVYYCAAETYAYLFHTYDYWGQGSQVTVSS,low polyreactivity
10,QVQLVESGGGLVQAGGSLRLSCAASGTTFYNYAMGWYRQAPGKERELVAAITSSGGSTYYADSVKGRFTISRDNAKNTVYLQMNSLKPEDTAVYYCNAVDGYGLVHSISTYEMDYWGQGTQVTVSS,low polyreactivity
11,QVQLVESGGGLVQAGGSLRLSCAASGTTYSINAMGWYRQATGKERELVAAISSGGSTYYADSVKGRFTISRDNAKYTVYLQMNSLIPEDTAVYYCAVDPSWTYWSTYRYDYWGQGTQVTVSS,low polyreactivity
12,QVQLVESGGGLVQAGGSLRLSCAASGVIFYVYAMGWYRQAPGKERELVAAISADGGITYYADSVKGRFTISRDNAKNTVYLQMNSLKPEDTAVYYCAADYYGSVQGGIQYGYYYWGQGTQVTVSS,low polyreactivity
13,QVQLVESGGGLVQAGGSLRLSCAASGVYAMGWYRQAPGKERELVAAISRRGGSTYYADSVKGRFTISRDNAKNTVYLQMNSLKPEDTAVYYCAAKRAGAEYDYWGQGTQVTVSS,high polyreactivity
14,QVQLVESGGGLVQAGGSLRLSCAASGYIFAGNAMGWYRQAPGKERELVAVITRGGRTYYADSVKGRFTISRDNAKNTVYLQMNSLKPEDTAVYYCAKLVSLAGRIYGYWGQGTQVTVSS,high polyreactivity
15,QVQLVESGGGLVQAGGSLRLSCAASGYIFAVYAMGWYIQAPGKEREFVAVITWRGGSTYYADSVKGRFTISRDNAKNTVYLQMNSLKPEDTAVYYCADDVYAQYDYWGQGTQVTVSS,high polyreactivity
16,QVQLVESGGGLVQAGGSLRLSCAASGYIFAWNAMGWYRQAPGKERQLVAAIRSSSGRTYYADSVKGRFTISRDNAKNTVYLLMNSLKPEDTAVYYCAASYAGGAVYYKYYSWGQGTQVTVSS,high polyreactivity
17,QVQLVESGGGLVQAGGSLRLSCAASGYIFDGNAMGWYRQAPGKERELVASISSGTSTYYADSVKGRFTISRDNAKNTVYLQMNSLKPEDTAVYYCAGDYKWSGFGYWGQGTQVTVSS,low polyreactivity
